Experiments:
[1] = molecular target: PARP2 WGR-RD-ART (human (Homo sapiens), UniProt Q9UGN5 90-583); test: X-ray crystallography (2.8 A); FP buffer, salt, pH and temperature not given (as in cited ref 17); crystallization: complex purified in 20 mM Hepes pH 7.5, 300 mM NaCl, 0.5 mM TCEP; crystals; conditions: protein: recombinant; tags: His-tag construct, TEV cleaved; chain copies: 2; blunt, 16 bp; 2 duplex copies in the biological unit
[2] = molecular target: T1, PARP2 FL E286A (human (Homo sapiens), UniProt Q9UGN5 1-583, E286A); test: fluorescence polarization; mean and SD of 3 listed KDs (10.42, 7.271, 6.234); FP buffer, salt, pH and temperature not given (as in cited ref 17); crystallization: complex purified in 20 mM Hepes pH 7.5, 300 mM NaCl, 0.5 mM TCEP; crystals; conditions: protein: recombinant; tags: His-tag construct, TEV cleaved; label: fluorescein on internal T10; dumbbell of two hairpins (TTTT loops) with one nick
[3] = molecular target: T2, PARP2 FL Y201F (human (Homo sapiens), UniProt Q9UGN5 1-583, Y201F); test: fluorescence polarization; mean and SD of 3 listed KDs (46.26, 27.47, 48.04); FP buffer, salt, pH and temperature not given (as in cited ref 17); crystallization: complex purified in 20 mM Hepes pH 7.5, 300 mM NaCl, 0.5 mM TCEP; crystals; conditions: protein: recombinant; tags: His-tag construct, TEV cleaved; label: fluorescein on internal T10; dumbbell of two hairpins (TTTT loops) with one nick
[4] = molecular target: T3, PARP2 FL G338A (human (Homo sapiens), UniProt Q9UGN5 1-583, G338A); test: fluorescence polarization; mean and SD of 3 listed KDs (10.62, 9.907, 6.489); FP buffer, salt, pH and temperature not given (as in cited ref 17); crystallization: complex purified in 20 mM Hepes pH 7.5, 300 mM NaCl, 0.5 mM TCEP; crystals; conditions: protein: recombinant; tags: His-tag construct, TEV cleaved; label: fluorescein on internal T10; dumbbell of two hairpins (TTTT loops) with one nick
[5] = molecular target: T4, PARP2 FL wt (human (Homo sapiens), UniProt Q9UGN5 1-583); test: fluorescence polarization; mean and SD of 3 listed KDs (10.74, 7.933, 8.182); FP buffer, salt, pH and temperature not given (as in cited ref 17); crystallization: complex purified in 20 mM Hepes pH 7.5, 300 mM NaCl, 0.5 mM TCEP; crystals; conditions: protein: recombinant; tags: His-tag construct, TEV cleaved; label: fluorescein on internal T10; dumbbell of two hairpins (TTTT loops) with one nick
[6] = molecular target: T5, PARP2 FL R153A (human (Homo sapiens), UniProt Q9UGN5 1-583, R153A); test: fluorescence polarization; mean and SD of 3 listed KDs (20.13, 10.37, 8.203); FP buffer, salt, pH and temperature not given (as in cited ref 17); crystallization: complex purified in 20 mM Hepes pH 7.5, 300 mM NaCl, 0.5 mM TCEP; crystals; conditions: protein: recombinant; tags: His-tag construct, TEV cleaved; label: fluorescein on internal T10; dumbbell of two hairpins (TTTT loops) with one nick
[7] = molecular target: T6, PARP2 FL E286R (human (Homo sapiens), UniProt Q9UGN5 1-583, E286R); test: fluorescence polarization; mean and SD of 3 listed KDs (18.12, 7.571, 5.497); FP buffer, salt, pH and temperature not given (as in cited ref 17); crystallization: complex purified in 20 mM Hepes pH 7.5, 300 mM NaCl, 0.5 mM TCEP; crystals; conditions: protein: recombinant; tags: His-tag construct, TEV cleaved; label: fluorescein on internal T10; dumbbell of two hairpins (TTTT loops) with one nick
[8] = molecular target: T7, PARP2 FL N129A (human (Homo sapiens), UniProt Q9UGN5 1-583, N129A); test: fluorescence polarization; mean and SD of 3 listed KDs (14.36, 8.278, 5.785); FP buffer, salt, pH and temperature not given (as in cited ref 17); crystallization: complex purified in 20 mM Hepes pH 7.5, 300 mM NaCl, 0.5 mM TCEP; crystals; conditions: protein: recombinant; tags: His-tag construct, TEV cleaved; label: fluorescein on internal T10; dumbbell of two hairpins (TTTT loops) with one nick
[9] = molecular target: T7, PARP2 FL N129A; test: fluorescence polarization; mean and SD of 3 listed KDs (58.73, 44.74, 72.15); FP buffer, salt, pH and temperature not given (as in cited ref 17); crystallization: complex purified in 20 mM Hepes pH 7.5, 300 mM NaCl, 0.5 mM TCEP; crystals; conditions: protein: recombinant; tags: His-tag construct, TEV cleaved; label: fluorescein on internal T8 of strand 2; blunt, 20 bp
[10] = molecular target: T1, PARP2 FL E286A; test: fluorescence polarization; mean and SD of 3 listed KDs (22.43, 26.3, 23.94); FP buffer, salt, pH and temperature not given (as in cited ref 17); crystallization: complex purified in 20 mM Hepes pH 7.5, 300 mM NaCl, 0.5 mM TCEP; crystals; conditions: protein: recombinant; tags: His-tag construct, TEV cleaved; label: fluorescein on internal T8 of strand 2; blunt, 20 bp
[11] = molecular target: T4, PARP2 FL wt; test: fluorescence polarization; mean and SD of 3 listed KDs (28.05, 21.44, 26.07); FP buffer, salt, pH and temperature not given (as in cited ref 17); crystallization: complex purified in 20 mM Hepes pH 7.5, 300 mM NaCl, 0.5 mM TCEP; crystals; conditions: protein: recombinant; tags: His-tag construct, TEV cleaved; label: fluorescein on internal T8 of strand 2; blunt, 20 bp
[12] = molecular target: T6, PARP2 FL E286R; test: fluorescence polarization; mean and SD of 3 listed KDs (12.72, 25.07, 16.53); FP buffer, salt, pH and temperature not given (as in cited ref 17); crystallization: complex purified in 20 mM Hepes pH 7.5, 300 mM NaCl, 0.5 mM TCEP; crystals; conditions: protein: recombinant; tags: His-tag construct, TEV cleaved; label: fluorescein on internal T8 of strand 2; blunt, 20 bp
[13] = molecular target: T2, PARP2 FL Y201F; test: fluorescence polarization; mean and SD of 3 listed KDs (93.24, 46.79, 151.2); FP buffer, salt, pH and temperature not given (as in cited ref 17); crystallization: complex purified in 20 mM Hepes pH 7.5, 300 mM NaCl, 0.5 mM TCEP; crystals; conditions: protein: recombinant; tags: His-tag construct, TEV cleaved; label: fluorescein on internal T8 of strand 2; blunt, 20 bp
[14] = molecular target: T3, PARP2 FL G338A; test: fluorescence polarization; mean and SD of 3 listed KDs (27.96, 29.72, 25.09); FP buffer, salt, pH and temperature not given (as in cited ref 17); crystallization: complex purified in 20 mM Hepes pH 7.5, 300 mM NaCl, 0.5 mM TCEP; crystals; conditions: protein: recombinant; tags: His-tag construct, TEV cleaved; label: fluorescein on internal T8 of strand 2; blunt, 20 bp
[15] = molecular target: T5, PARP2 FL R153A; test: fluorescence polarization; mean and SD of 3 listed KDs (232.6, 64.05, 161.3); FP buffer, salt, pH and temperature not given (as in cited ref 17); crystallization: complex purified in 20 mM Hepes pH 7.5, 300 mM NaCl, 0.5 mM TCEP; crystals; conditions: protein: recombinant; tags: His-tag construct, TEV cleaved; label: fluorescein on internal T8 of strand 2; blunt, 20 bp

T6 sequence (Q9UGN5 whole entry E286R): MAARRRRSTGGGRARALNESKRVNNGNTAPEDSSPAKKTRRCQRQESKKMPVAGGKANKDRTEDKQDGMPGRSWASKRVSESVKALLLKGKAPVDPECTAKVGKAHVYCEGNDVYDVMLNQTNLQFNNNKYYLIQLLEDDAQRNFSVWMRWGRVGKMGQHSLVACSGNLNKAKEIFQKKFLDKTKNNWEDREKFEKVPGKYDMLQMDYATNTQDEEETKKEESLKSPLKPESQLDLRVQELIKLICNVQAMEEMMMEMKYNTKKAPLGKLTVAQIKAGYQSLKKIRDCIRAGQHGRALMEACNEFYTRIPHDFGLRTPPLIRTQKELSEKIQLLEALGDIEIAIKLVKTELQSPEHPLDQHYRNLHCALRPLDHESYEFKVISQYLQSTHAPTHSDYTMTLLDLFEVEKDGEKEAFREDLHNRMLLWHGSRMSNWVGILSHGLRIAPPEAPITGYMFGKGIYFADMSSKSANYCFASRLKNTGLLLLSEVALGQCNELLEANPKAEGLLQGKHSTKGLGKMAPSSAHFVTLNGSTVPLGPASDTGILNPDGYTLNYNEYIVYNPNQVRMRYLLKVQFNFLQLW
T1 sequence (Q9UGN5 whole entry E286A): as the sequence (Q9UGN5 whole entry E286R) above, with R286A counted along it
T5 sequence (Q9UGN5 whole entry R153A): as the sequence (Q9UGN5 whole entry E286R) above, with R153A, R286E counted along it
T4 sequence (Q9UGN5 whole entry): as the sequence (Q9UGN5 whole entry E286R) above, with R286E counted along it
T7 sequence (Q9UGN5 whole entry N129A): as the sequence (Q9UGN5 whole entry E286R) above, with N129A, R286E counted along it
T2 sequence (Q9UGN5 whole entry Y201F): as the sequence (Q9UGN5 whole entry E286R) above, with Y201F, R286E counted along it
T3 sequence (Q9UGN5 whole entry G338A): as the sequence (Q9UGN5 whole entry E286R) above, with R286E, G338A counted along it
PARP2 WGR-RD-ART, sequence (Q9UGN5 90-583): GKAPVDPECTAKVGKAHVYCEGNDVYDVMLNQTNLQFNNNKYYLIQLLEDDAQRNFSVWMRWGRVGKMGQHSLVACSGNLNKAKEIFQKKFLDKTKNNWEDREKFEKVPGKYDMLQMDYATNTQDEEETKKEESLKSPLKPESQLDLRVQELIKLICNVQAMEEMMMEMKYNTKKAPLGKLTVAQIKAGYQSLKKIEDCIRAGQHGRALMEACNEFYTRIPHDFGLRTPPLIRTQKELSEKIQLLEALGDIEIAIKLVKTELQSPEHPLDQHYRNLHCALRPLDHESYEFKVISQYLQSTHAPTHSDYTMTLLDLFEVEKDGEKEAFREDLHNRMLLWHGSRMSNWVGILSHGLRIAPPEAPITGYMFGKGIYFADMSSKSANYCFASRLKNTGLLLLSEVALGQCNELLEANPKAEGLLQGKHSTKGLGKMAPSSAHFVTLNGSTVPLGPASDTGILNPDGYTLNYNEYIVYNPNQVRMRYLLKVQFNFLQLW

B1: DNA-1 (dsDNA)
DNA 1: GACGACCCGGAGCACA
DNA 2: TGTGCTCCGGGTCGTC
modifications: 5'-phosphate on strand 1
B1: binds [1].

B2: DNA-8 nicked dumbbell (structured_DNA)
DNA: GGAAGTCTTTTGACTTCCTCGAAGCTTTTGCTTCGA
modifications: 5'-phosphate
With B2 the Kd [2] was 7.98 ± 2.18 nM, the Kd [3] was 40.6 ± 11.4 nM and the Kd [4] was 9.01 ± 2.21 nM. The Kd [5] was 8.95 ± 1.55 nM, the Kd [6] was 12.9 ± 6.35 nM and the Kd [7] was 10.4 ± 6.77 nM. The Kd [8] was 9.47 ± 4.41 nM.

B3: DNA-9 dsDNA (dsDNA)
DNA 1: GACGCAACCCGGAGAACACA
DNA 2: TGTGTTCTCCGGGTTGCGTC
modifications: 5'-phosphate on strand 1
B3 was tested, and the Kd [9] was 58.5 ± 13.7 nM, the Kd [10] was 24.2 ± 1.96 nM and the Kd [11] was 25.2 ± 3.39 nM. For the same binder, the Kd [12] was 18.1 ± 6.32 nM, the Kd [13] was 97.1 ± 52.3 nM and the Kd [14] was 27.6 ± 2.34 nM. For the same binder, the Kd [15] was 153 ± 84.6 nM.
